Data as given in the supplement of paper PMC10899765.

What was measured:
Settings in all cases: 20 nM; 72 h
[1] = system: MCF10A; experiment: percent viability (nuclei count relative to siNT); higher = more viable cells
Method: (§1)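 After 72 h, cells were fixed and stained with Hoechst and anti-fibrillarin, and nucleoli per nucleus were counted with CellProfiler. Values are plate-adjusted percent effect for the one-nucleolus and 5+ nucleoli phenotypes, normalised to siNT (0%) and to the positive controls siNOL11 or siKIF11 (100%), as the mean of biological triplicates. Percent viability is the nuclei count relative to siNT.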

[2] = system: MCF10A; experiment: 5+ nucleoli phenotype percent effect (relative to siNT 0% and siKIF11 100%); higher = more cells with five or more nucleoli
Method: as §1

[3] = system: MCF10A; experiment: one-nucleolus phenotype percent effect (relative to siNT 0% and siNOL11 100%); higher = more cells with one nucleolus (ribosome biogenesis inhibition)
Method: as §1

AAAACCGUCUAGUUACAGUUGU [hsa-miR-1537]
percent viability [1]: 73.7%
5+ nucleoli phenotype percent effect [2]: 13.9%
one-nucleolus phenotype percent effect [3]: -11.1%

UGGGGGCUGGAUGGGGUAGAGU [hsa-miR-6846-5p]
percent viability [1]: 23.9%
5+ nucleoli phenotype percent effect [2]: -0.876%
one-nucleolus phenotype percent effect [3]: 7.84%

AGGCCUGUGGCUCCUCCCUCAG [hsa-miR-6735-3p]
percent viability [1]: 50.4%
5+ nucleoli phenotype percent effect [2]: 15.7%
one-nucleolus phenotype percent effect [3]: -1.31%

UAGGAGGGAAUAGUAAAAGCAG [hsa-miR-4779]
percent viability [1]: 15%
5+ nucleoli phenotype percent effect [2]: -25.8%
one-nucleolus phenotype percent effect [3]: 54.7%

AGCAGAAGCAGGGAGGUUCUCCCA [hsa-miR-298]
percent viability [1]: 25.9%
5+ nucleoli phenotype percent effect [2]: -22.8%
one-nucleolus phenotype percent effect [3]: 17.9%

CUCUAGAGGGAAGCGCUUUCUG [hsa-miR-519a-5p]
percent viability [1]: 56.5%
5+ nucleoli phenotype percent effect [2]: -2.96%
one-nucleolus phenotype percent effect [3]: -15.1%

GGAGACUGAUGAGUUCCCGGGA [hsa-miR-873-3p]
percent viability [1]: 106%
5+ nucleoli phenotype percent effect [2]: -5.61%
one-nucleolus phenotype percent effect [3]: -6.55%

ACUCAGUCAUGGUCAUU [hsa-miR-4264]
percent viability [1]: 95.1%
5+ nucleoli phenotype percent effect [2]: 26.3%
one-nucleolus phenotype percent effect [3]: -7.28%

GAGGGCAGAGCCAGCUUCCUGA [hsa-miR-7843-5p]
percent viability [1]: 32.5%
5+ nucleoli phenotype percent effect [2]: 13.7%
one-nucleolus phenotype percent effect [3]: 16.5%

CAGGGAGGCGCUCACUCUCUGCU [hsa-miR-4756-5p]
percent viability [1]: 158%
5+ nucleoli phenotype percent effect [2]: 41%
one-nucleolus phenotype percent effect [3]: -3.87%

UAUGGCUUUUUAUUCCUAUGUGA [hsa-miR-135a-5p]
percent viability [1]: 69%
5+ nucleoli phenotype percent effect [2]: -18.7%
one-nucleolus phenotype percent effect [3]: -3.65%

UGGGGAAGGCUUGGCAGGGAAGA [hsa-miR-6780b-5p]
percent viability [1]: 25.6%
5+ nucleoli phenotype percent effect [2]: -35.6%
one-nucleolus phenotype percent effect [3]: 38%

AAACUAAUAUACCCAUAUUCUG [hsa-miR-5583-5p]
percent viability [1]: 115%
5+ nucleoli phenotype percent effect [2]: 35.5%
one-nucleolus phenotype percent effect [3]: -23.4%

GGCUGGAGCGAGUGCAGUGGUG [hsa-miR-3135b]
percent viability [1]: 43.2%
5+ nucleoli phenotype percent effect [2]: -9.26%
one-nucleolus phenotype percent effect [3]: 9.78%

AGGGUGGGGCUGGAGGUGGGGCU [hsa-miR-6756-5p]
percent viability [1]: 42%
5+ nucleoli phenotype percent effect [2]: -11%
one-nucleolus phenotype percent effect [3]: 3.98%

UUAAGACUUGCAGUGAUGUUU [hsa-miR-499a-5p]
percent viability [1]: 102%
5+ nucleoli phenotype percent effect [2]: -1.56%
one-nucleolus phenotype percent effect [3]: 5.05%

GUUGGGGUGCAGGGGUCUGCU [hsa-miR-5572]
percent viability [1]: 19.7%
5+ nucleoli phenotype percent effect [2]: -19.8%
one-nucleolus phenotype percent effect [3]: 43.3%

CGCAGACAAUGCCUACUGGCCUA [hsa-miR-3166]
percent viability [1]: 21.3%
5+ nucleoli phenotype percent effect [2]: -21.5%
one-nucleolus phenotype percent effect [3]: 6.38%

UGUUGUACUUUUUUUUUUGUUC [hsa-miR-3613-5p]
percent viability [1]: 114%
5+ nucleoli phenotype percent effect [2]: 4.98%
one-nucleolus phenotype percent effect [3]: -10.4%

CAGUGCAAUGAUGAAAGGGCAU [hsa-miR-130b-3p]
percent viability [1]: 77%
5+ nucleoli phenotype percent effect [2]: 59.9%
one-nucleolus phenotype percent effect [3]: -14.8%

AAAACGGUGAGAUUUUGUUUU [hsa-miR-553]
percent viability [1]: 103%
5+ nucleoli phenotype percent effect [2]: 65.7%
one-nucleolus phenotype percent effect [3]: -24.2%

UGAGGGAGUAGGAUGUAUGGUU [hsa-miR-4510]
percent viability [1]: 16.6%
5+ nucleoli phenotype percent effect [2]: -17.6%
one-nucleolus phenotype percent effect [3]: 13.3%

CUCGAGUUGGAAGAGGCG [hsa-miR-4444]
percent viability [1]: 109%
5+ nucleoli phenotype percent effect [2]: -29.6%
one-nucleolus phenotype percent effect [3]: 19.6%

UAGUUCUUCCCUUUGCCCAAUU [hsa-miR-5584-3p]
percent viability [1]: 32.6%
5+ nucleoli phenotype percent effect [2]: -41%
one-nucleolus phenotype percent effect [3]: 5.26%

CAGCAGUCCCUCCCCCUG [hsa-miR-4274]
percent viability [1]: 34.1%
5+ nucleoli phenotype percent effect [2]: 7.99%
one-nucleolus phenotype percent effect [3]: 6.47%

AAAAGCUGGGUUGAGAGGGU [hsa-miR-320c]
percent viability [1]: 64.7%
5+ nucleoli phenotype percent effect [2]: -0.437%
one-nucleolus phenotype percent effect [3]: 1.49%

UGGCUCAGUUCAGCAGGAACAG [hsa-miR-24-3p]
percent viability [1]: 26.5%
5+ nucleoli phenotype percent effect [2]: -17%
one-nucleolus phenotype percent effect [3]: 2.42%

CAGCAGUGCGCAGGGCUG [hsa-miR-4519]
percent viability [1]: 27.2%
5+ nucleoli phenotype percent effect [2]: 8.89%
one-nucleolus phenotype percent effect [3]: 8.95%

UUAGACCUAGUACACGUCCUU [hsa-miR-3684]
percent viability [1]: 85.2%
5+ nucleoli phenotype percent effect [2]: 16.1%
one-nucleolus phenotype percent effect [3]: -19.2%

AUAUGGGUUUACUAGUUGGU [hsa-miR-3115]
percent viability [1]: 25%
5+ nucleoli phenotype percent effect [2]: -8.18%
one-nucleolus phenotype percent effect [3]: 27.9%

UGUGCAAAUCCAUGCAAAACUGA [hsa-miR-19b-3p]
percent viability [1]: 82.4%
5+ nucleoli phenotype percent effect [2]: -2.64%
one-nucleolus phenotype percent effect [3]: 4.13%

AGCUGGUGUUGUGAAUCAGGCCG [hsa-miR-138-5p]
percent viability [1]: 21.6%
5+ nucleoli phenotype percent effect [2]: -24.6%
one-nucleolus phenotype percent effect [3]: 13.5%

CCUGUGCUCCCAGGGCCUCGC [hsa-miR-5008-3p]
percent viability [1]: 77.3%
5+ nucleoli phenotype percent effect [2]: 24%
one-nucleolus phenotype percent effect [3]: -14.5%

UGCACGGCACUGGGGACACGU [hsa-miR-3177-3p]
percent viability [1]: 20.3%
5+ nucleoli phenotype percent effect [2]: -18%
one-nucleolus phenotype percent effect [3]: 33.1%

UCGUGUCUUGUGUUGCAGCCGG [hsa-miR-187-3p]
percent viability [1]: 87.7%
5+ nucleoli phenotype percent effect [2]: -1.49%
one-nucleolus phenotype percent effect [3]: -7.21%

UGCCUACUGAGCUGAAACACAG [hsa-miR-24-2-5p]
percent viability [1]: 46.7%
5+ nucleoli phenotype percent effect [2]: -9.36%
one-nucleolus phenotype percent effect [3]: 7.59%

AUGGUACCCUGGCAUACUGAGU [hsa-miR-1263]
percent viability [1]: 24.8%
5+ nucleoli phenotype percent effect [2]: -22.2%
one-nucleolus phenotype percent effect [3]: 49.6%

CUGGAGUCUAGGAUUCCA [hsa-miR-4309]
percent viability [1]: 33.2%
5+ nucleoli phenotype percent effect [2]: -25.6%
one-nucleolus phenotype percent effect [3]: 33.6%

UAUGUAACAUGGUCCACUAACU [hsa-miR-379-3p]
percent viability [1]: 89.1%
5+ nucleoli phenotype percent effect [2]: 38.4%
one-nucleolus phenotype percent effect [3]: -12%

UCAGUGCAUCACAGAACUUUGU [hsa-miR-148b-3p]
percent viability [1]: 126%
5+ nucleoli phenotype percent effect [2]: 68.9%
one-nucleolus phenotype percent effect [3]: -21.1%

UGGGGGCUGGGAUGGGCCAUGGU [hsa-miR-6848-5p]
percent viability [1]: 22.5%
5+ nucleoli phenotype percent effect [2]: -4.7%
one-nucleolus phenotype percent effect [3]: 7.99%

CUUCUUGUGCUCUAGGAUUGU [hsa-miR-578]
percent viability [1]: 32.6%
5+ nucleoli phenotype percent effect [2]: -13.1%
one-nucleolus phenotype percent effect [3]: 19.6%

CCUAAUUUGAACACCUUCGGUA [hsa-miR-4735-5p]
percent viability [1]: 80.8%
5+ nucleoli phenotype percent effect [2]: 8.71%
one-nucleolus phenotype percent effect [3]: -11.3%

UCGCGCCCCGGCUCCCGUUC [hsa-miR-1292-3p]
percent viability [1]: 64.3%
5+ nucleoli phenotype percent effect [2]: 9.03%
one-nucleolus phenotype percent effect [3]: -6.7%

UGUAAACAUCCUUGACUGGAAG [hsa-miR-30e-5p]
percent viability [1]: 61.8%
5+ nucleoli phenotype percent effect [2]: 36.3%
one-nucleolus phenotype percent effect [3]: 0.878%

UCAAGGCCAGAGGUCCCACAGCA [hsa-miR-3922-5p]
percent viability [1]: 30.9%
5+ nucleoli phenotype percent effect [2]: -12.7%
one-nucleolus phenotype percent effect [3]: 6.44%

GAUUGAGACUAGUAGGGCUAGGC [hsa-miR-4461]
percent viability [1]: 31.4%
5+ nucleoli phenotype percent effect [2]: -3.16%
one-nucleolus phenotype percent effect [3]: 3.4%

UGGCAAACGUGGAAGCCGAGA [hsa-miR-4470]
percent viability [1]: 15.8%
5+ nucleoli phenotype percent effect [2]: -21.5%
one-nucleolus phenotype percent effect [3]: 61%
